Results as given in publication PMC4678811, “Assembly and dynamics of the U4/U6 di-snRNP by single-molecule FRET” (Nucleic Acids Research, 2015).
Values joined by “and” are separate entries in the source; they are usually repeats but may differ in a detail not shown here. Identical values can stand only once.

B1: LSm2–LSm8 complex (complex, Saccharomyces cerevisiae)
chain 1: MLFFSFFKTLVDQEVVVELKNDIEIKGTLQSVDQFLNLKLDNISCTDEKKYPHLGSVRNIFIRGSTVRYVYLNKNMVDTNLLQDATRREVMTERK
chain 2: METPLDLLKLNLDERVYIKLRGARTLVGTLQAFDSHCNIVLSDAVETIYQLNNEELSESERRCEMVFIRGDTVTLISTPSEDDDGAVEI
chain 3: MLPLYLLTNAKGQQMQIELKNGEIIQGILTNVDNWMNLTLSNVTEYSEESAINSEDNAESSKAVKLNEIYIRGTFIKFIKLQDNIIDKVKQQINSNNNSNSNGPGH
chain 4: MSLPEILPLEVIDKTINQKVLIVLQSNREFEGTLVGFDDFVNVILEDAVEWLIDPEDESRNEKVMQHHGRMLLSGNNIAILVPGGKKTPTEAL
chain 5: MSGKASTEGSVTTEFLSDIIGKTVNVKLASGLLYSGRLESIDGFMNVALSSATEHYESNNNKLLNKFNSDVFLRGTQVMYISEQKI
chain 6: MHQQHSKSENKPQQQRKKFEGPKREAILDLAKYKDSKIRVKLMGGKLVIGVLKGYDQLMNLVLDDTVEYMSNPDDENNTELISKNARKLGLTVIRGTILVSLSSAEGSDVLYMQK
chain 7: MSATLKDYLNKRVVIIKVDGECLIASLNGFDKNTNLFITNVFNRISKEFICKAQLLRGSEIALVGLIDAENDDSLAPIDEKKVPMLKDTKNKIENEHVIWEKVYESKTK
notes: LSm2, Saccharomyces cerevisiae, untagged; LSm3, Saccharomyces cerevisiae, untagged; LSm4, Saccharomyces cerevisiae, amino acids 1-106, untagged; LSm5, Saccharomyces cerevisiae; LSm6, Saccharomyces cerevisiae, untagged; LSm7, Saccharomyces cerevisiae, untagged; LSm8, Saccharomyces cerevisiae; Both tags are TEV-cleavable; also called LSm 2–8 complex; LSm complex; source: S. cerevisiae BCY123, …

Key:
[1] = system: Prp31 (Saccharomyces cerevisiae); experiment: EMSA; details: apparent; Hill 1.9; EMSA: 2 nM RNA, 10 mM K-HEPES pH 7.5, 100 mM KCl, 0.01% NP-40, 20 ug E. coli tRNA in 100 ul, on ice 60 min, 4% native gel 0.5X TBE 4 C; smFRET: 10 mM Tris-HCl …
[2] = system: Sm protein complex (SmB, D1, D2, D3, E, F, G) (Saccharomyces cerevisiae); experiment: EMSA; details: apparent; Hill 3.5; EMSA: 2 nM RNA, 10 mM K-HEPES pH 7.5, 100 mM KCl, 0.01% NP-40, 20 ug E. coli tRNA in 100 ul, on ice 60 min, 4% native gel 0.5X TBE 4 C; smFRET: 10 mM Tris-HCl …
[3] = system: LSm2-LSm8 complex (Saccharomyces cerevisiae); experiment: EMSA; details: apparent; Hill 1.7; EMSA: 2 nM RNA, 10 mM K-HEPES pH 7.5, 100 mM KCl, 0.01% NP-40, 20 ug E. coli tRNA in 100 ul, on ice 60 min, 4% native gel 0.5X TBE 4 C; smFRET: 10 mM Tris-HCl …
[4] = system: Prp3/4 (Prp3-Prp4 complex) (Saccharomyces cerevisiae); experiment: EMSA; details: apparent; Hill 2.6; EMSA: 2 nM RNA, 10 mM K-HEPES pH 7.5, 100 mM KCl, 0.01% NP-40, 20 ug E. coli tRNA in 100 ul, on ice 60 min, 4% native gel 0.5X TBE 4 C; smFRET: 10 mM Tris-HCl …
[5] = system: Snu13 (Saccharomyces cerevisiae); experiment: EMSA; details: apparent; Hill 1; EMSA: 2 nM RNA, 10 mM K-HEPES pH 7.5, 100 mM KCl, 0.01% NP-40, 20 ug E. coli tRNA in 100 ul, on ice 60 min, 4% native gel 0.5X TBE 4 C; smFRET: 10 mM Tris-HCl …
[6] = molecular target: the molecule itself; experiment: native MS; minor peaks of the Mono-Q column after the main peak of the purified LSm2–LSm8 complex

Row | Molecule | Kd [1] [nM] | Kd [2] [nM] | Kd [3] [nM] | Kd [4] [nM] | Kd [5] [nM] | stoichiometry N [6]
1 | U4/U6 snRNA duplex (full length) | 243 | 89 | 5 | 57 | 17 | –
2 | B1 | – | – | – | – | – | 2 and 3
